Data as given in US20220396632A1 (VERSEAU THERAPEUTICS, published 2022).
No end group written: not given here. *: point of attachment. Biotin = O=C1N[C@H]2[C@H](CS[C@H]2CCCCC(=O)*)N1

Legend:
[1] = molecular target: T1, Recombinant human PSGL-1(ECD)-hFc1 (R&D Systems, Cat. 3345-PS) (human, UniProt Q14242 42-305); assay: ELISA, plate-bound target
T1 construct: Bought; Gln42-Val295 counted on AAC50061; also called PSGL-1-Fc; PSGL-1-hFc1 chimera; not shown: human IgG1 Fc, Pro100-Lys330
T1 sequence: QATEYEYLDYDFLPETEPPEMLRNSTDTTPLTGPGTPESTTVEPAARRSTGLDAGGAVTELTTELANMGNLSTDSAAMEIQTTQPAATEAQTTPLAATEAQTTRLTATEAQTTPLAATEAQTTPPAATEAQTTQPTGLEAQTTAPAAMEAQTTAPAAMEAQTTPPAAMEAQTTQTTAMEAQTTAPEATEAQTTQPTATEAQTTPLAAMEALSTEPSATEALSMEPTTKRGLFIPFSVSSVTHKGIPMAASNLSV
Summary of the method: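 Direct format: anti-PSGL-1 mAb at a single concentration (2–500 nM) or serially diluted (0.002–100 nM) on immobilized target, detected with HRP anti-IgG and TMB at A450; 45 min steps at 37° C. Capture format: coated mAb (3 ug/mL) binds biotinylated unmodified or sulfotyrosine peptide (3 nM–3 uM), detected with HRP-streptavidin.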

[2] = molecular target: T2, Biotin PSGL-1(105-125) peptide (human, N-terminal acetyl; C-terminal Lys-biotin); assay: ELISA; against WT PSGL-1(ECD)-hFc1
T2 peptide: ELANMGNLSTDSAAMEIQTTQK
Experimental: (§1) A typical ELISA experiment involved binding of a single concentration or serially diluted mAb in assay buffer (3% BSA in PBS containing 0.05% Tween®20, pH 7.4) onto BSA blocked high binding microtiter plate half-wells (Corning Cat. #3690), which contained PSGL-1 protein or streptavidin-immobilized biotin peptide. After incubation for 45 min. at 37° C., the plate was washed 3 times with wash buffer (PBS containing 0.05% Tween®20, pH 7.4), and an appropriate HRP-conjugated secondary antibody added (25 ul/well) (HRP goat anti-mouse or anti-human IgG). After 45 min. incubation at 37° C., the plate was washed and antibody bound to plate-immobilized target was determined at A450 nm using HRP substrate (3,3′5,5′-tetramethylbenzidine (TMB)). For each antibody, duplicate values were averaged and assay background subtracted.

[3] = molecular target: T3, Biotin PSGL-1(42-62) peptide, unmodified (human, C-terminal Lys-biotin); assay: ELISA, streptavidin-immobilized biotin peptide [cont.]
T3 construct: Residues 42-62 followed by GGGK-biotin; also called WT; wild-type
T3 peptide: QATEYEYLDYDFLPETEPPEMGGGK
Experimental: as §1

75-95 = molecular target: T4, 75-95 (N-terminal acetyl; C-terminal Lys-biotin); assay: as above
T4 construct: also called Biotin PSGL-1(75-95) peptide
T4 peptide: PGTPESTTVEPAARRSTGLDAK
Experimental: as §1

[4] = molecular target: T5, Biotin PSGL-1(56-70) peptide (human); assay: as above
T5 peptide: Ac-ETEPPEMLRNSTDTTGK(Biotin)
Experimental: as §1

275-295 = molecular target: T6, 275-295 (N-terminal acetyl; C-terminal Lys-biotin); assay: as above
T6 peptide: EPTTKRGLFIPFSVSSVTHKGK
Experimental: as §1

42-80 = molecular target: T7, 42-80 (C-terminal Lys-biotin); assay: as above
T7 construct: also called Biotin PSGL-1(42-80) peptide
T7 peptide: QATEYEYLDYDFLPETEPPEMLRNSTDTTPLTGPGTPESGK
Experimental: as §1

245-265 = molecular target: T8, 245-265 (N-terminal acetyl; C-terminal Lys-biotin); assay: as above
T8 peptide: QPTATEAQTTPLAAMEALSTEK
Experimental: as §1

225-250 = molecular target: T9, 225-250 (N-terminal acetyl; C-terminal Lys-biotin); assay: as above
T9 peptide: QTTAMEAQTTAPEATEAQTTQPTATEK
Experimental: as §1

165-190 = molecular target: T10, 165-190 (N-terminal acetyl; C-terminal Lys-biotin); assay: as above
T10 construct: also called Biotin PSGL-1(165-190) peptide
T10 peptide: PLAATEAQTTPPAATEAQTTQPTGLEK
Experimental: as §1

145-170 = molecular target: T11, 145-170 (N-terminal acetyl; C-terminal Lys-biotin); assay: as above
T11 peptide: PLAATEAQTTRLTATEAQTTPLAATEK
Experimental: as §1

[5] = molecular target: T12, Biotin Y46,48,51(SO3) PSGL-1(42-62) peptide (human, sulfotyrosine at Y46, Y48 and Y51; C-terminal Lys-biotin); assay: capture ELISA; against parent 18F02
T12 construct: also called fully sulfated N-terminal PSGL-1 peptide
T12 peptide: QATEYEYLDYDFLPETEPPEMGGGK
Experimental: A typical ELISA for N-terminal PSGL-1 reactive humanized mAbs binding to Y_{46,48,51}(SO₃) PSGL-1₍₄₂₋₆₂₎ involved coating high binding half-well plates (Corning Cat. #3690) with 3 ug/mL/25 ul per well of the mAbs or with an isotype hG4 control in PBS, pH 7.4, overnight at 4° C. […] Biotinylated Y_{46,48,51}(SO₃) PSGL-1₍₄₂₋₆₂₎ was added (25 ul per well) in duplicate at 2.8 uM in assay buffer (blocking buffer containing 0.05% tween 20) and serially diluted into test and control (just blocked) wells, and the plate incubated for 45 min at 37° C. The plate was washed ×3 and an appropriate HRP-conjugated streptavidin was added (25 ul per well; Jackson Immunoresearch, Cat. #016-030-084) and the plate was incubated for 45 min at 37° C. […] For each antibody, an EC50 value was determined from sigmoidal fitted peptide titration curve.

B1: 20I15 (antibody, V domains shown)
VH: EVKLVESGGGLVQPGGSLSLSCAASGFTFTDYYMSWVRQPPGKALEWLGFIRNKANGYTTEYSASVKGRFTISRDNSQSILYLQMNALRAEDSATYYCARTYLRRGYFDVWGTGTTVTVSS
VL: DIVLTQSPASLAVSLGQRATISCRASKSVSTSGYSYMHWFQQKPGQPPKLLIYLASNLESGVPARFSGSGSGTDFTLNIHPVEEEDAATYYCQHSRELPLTFGAGTKLELK
notes: From mouse immunisation; only variable domains given; also called 20115
- EC50 [1]: 0.26 nM

B2: 16E17 (antibody, V domains shown)
VH: QIQLVQSGPELKKPGETVKISCKASGYAFTTYGMSWVKQAPGKGLKWMGWINTYSGVPKYADDFKGRFAFSLETSASTAYLHINNLKNEDTATYFCGRHYYGSSYFDYWGQGTTLTVSS
VL: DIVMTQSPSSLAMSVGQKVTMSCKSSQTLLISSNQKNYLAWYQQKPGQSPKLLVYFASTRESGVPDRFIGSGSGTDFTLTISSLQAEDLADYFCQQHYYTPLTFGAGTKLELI
notes: From mouse immunisation; only variable domains given
- EC50/EC50WTprot [2]: ~100 fold

B3: 18K07 (antibody, V domains shown)
VH: QIQLVQSGPELKKPGETVKISCEASGYTFTTYGMNWVKQAPGKGLKWMGWINTYSGVPTYADDFQGRFAFSVETSATTAYLQINNLKNEDAATYFCARSDDTYYGFAYWGQGTLVTVSA
VL: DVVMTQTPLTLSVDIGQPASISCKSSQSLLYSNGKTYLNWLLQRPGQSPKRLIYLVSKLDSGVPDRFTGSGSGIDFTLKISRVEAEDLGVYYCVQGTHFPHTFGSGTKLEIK
notes: as for B2
- binding result [3]: no binding (tested: 10 nM)
- binding result (75-95): no binding (tested: 10 nM)
- binding result [4]: no binding (tested: 10 nM)
- binding result (275-295): no binding (tested: 10 nM)
- binding result (42-80): no binding (tested: 10 nM)
- binding result (245-265): no binding (tested: 10 nM)
- binding result (225-250): no binding (tested: 10 nM)
- binding result (165-190): no binding (tested: 10 nM)
- binding result (145-170): no binding (tested: 10 nM)

B4: 18F02 (antibody, V domains shown)
VH: QVQLQQPGAELVKPGASVKLSCKASGYTFTSYWMHWVKQRPGQGLEWIGMIHPNSGRTNYNEKFKSKATLTVDKSSSTAYMQLSSLTSEDSAVYYCARSDYWGQGTTLTVSS
VL: DIVMTQAAFSNPVTLGTSASISCRSSKSLLHSDGITYLYWFLQRPGQSPQLLIYRMSNLASGVPDRFSGSGSGTDFTLRISRVEAEDVGVYYCAQMLEFPRTFGGGTKLEIK
notes: as for B2
- N-term peptide EC50 (normalized) [5]: 1 fold
